Tests used:
Assay type in all cases: in vivo
[1] = system: Diamondback moth (Plutella xylostella); assay: Diet-surface overlay (DSO) bioassay; conditions: Table 41, individuals of n = 16 after 7 days
Method: (§1) Diet-surface overlay bioassays are conducted with artificial diet mixes without antibiotics in 1.5 cm^2 cell bioassay trays(s). Artificial diets are commercially available from Southland Products Inc. Diets were prepared by dispersing 0.5 mL of molten diet to each 1.5 cm^2 cell. After solidification, 0.1 mL enzyme treatments were dispersed on top of diet in each cell and the tray was gently rocked in an orbital shaker to spread the liquid uniformly over the diet surface. Trays were placed under clean airflow until the surface of each cell was uniformly dried. One or two 16-cell sections were used per treatment (the number in larvae treated was 16 or 32).
(§2) One healthy first instar larva was placed into each treatment cell, each 16-cell section was covered with a re-sealable lid and incubated at 27° C. and light-dark period of 16:8 hrs. After 7 days, and according to the species, the number of individuals in the following developmental categories was recorded.
(§3) Diamondback moth (Plutella xylostella): Dead Larva (lack of movement), Larva Stage I (≤50% relative size), Larva Stage II (100% relative size, full size), Early Pupa (light green color), Late Pupa (light-dark brown color), and Adult.
(§4) Negative/untreated controls were treated with filtered water and positive controls were treated with lethal doses of Bacillus thuringiensis subsp. Kurstaki (Btk) spores at 1000 ppm.

[2] = system: Btk resistant Diamondback moth; assay: Diet-surface overlay (DSO) bioassay
Method: as §1, §2, §3, §4
However, both neutral proteases reduced the number of individuals reaching adult stage.

[3] = system: Black gloss snails (Zonitoides nitidus); assay: Antifeedant and molluscicide bioassay (artificial diet): consumption, survival, weight gain; conditions: Table 63; n = 12, 7 days; control diet 2.50
Method: Two-week old garden snails (Cornu aspersum) and full-size black gloss snails (Zonitoides nitidus) were maintained in a semi-darkened tank at 68-70° F. at high humidity, provided with a wet sponge in a petri dish. Snails were transferred to fresh tank every 2-3 days, and they were feed ad libitum with cucumber slices supplemented with calcium carbonate tablets. Individuals were reared in the laboratory for at least a week to fully acclimate to laboratory conditions prior to testing. The individuals ranged between 3 weeks to 2 months old at the time of bioassay.
Filter-sterilized recombinant enzymes including proteases and lipases were prepared as indicated in Example 25. Corresponding controls (e.g., buffer, fermentation of non-recombinant strain, water) were be prepared accordingly. […]
12 snails were randomly assigned to each treatment, labeled with permanent marker on the top of the shell for identification, and their weight (mg) was recorded before treatment. […] At the time of treatment replacement, treatment consumption, weight, and mortality were recorded.
Alkaline Protease and Keratinase and Lipases from Pseudomonas fluorescens (Pf,), were prepared as described above and their antifeedant and molluscicidal effects were tested. […] The units (U) of enzyme activity was determined as the amount of enzyme required to breakdown 1 μM of substrate per minute. […]

[4] = system: Fall armyworm (Spodoptera frugiperda); assay: Diet-surface overlay (DSO) bioassay
Method: as §1, §2, §4

[5] = Table 42, Btk resistant, n = 32, doses as E69, water 0
[6] = Table 43, n = 32, Keratinase 260 U/mL diet, water 0

B1: Keratinase: protease resuspended in water at 0.25 g/mL (protein, listed as Bacillus licheniformis)
chain: MMRKKSFWLGMLTAFMLVFTMAFSDSASAAQPAKNVEKDYIVGFKSGVKTASVKKDIIKESGGKVDKQFRIINAAKAKLDKEALKEVKNDPDVAYVEEDHVAHALAQTVPYGIPLIKADKVQAQGFKGANVKVAVLDTGIQASHPDLNVVGGASFVAGEAYNTDGNGHGTHVAGTVAALDNTTGVLGVAPSVSLYAVKVLNSSGSGSYSGIVSGIEWATTNGMDVINMSLGGASGSTAMKQAVDNAYARGVVVVAAAGNSGSSGNTNTIGYPAKYDSVIAVGAVDSNSNRASFSSVGAELEVMAPGAGVYSTYPTNTYATLNGTSMVSPHVAGAAALILSKHPNLSASQVRNRLSSTATYLGSSFYYGKGLINVEAAAQ
modifications: Protease _ keratinase
notes: protease resuspended in water at 0.25 g/mL
Dead Larva ([1]; U/mL diet: SEQ 127 0.206, Acid 2.5, Alkaline 190, Neutral 20, Keratinase 26, Btk spores 1000 ppm, water 0): 1 | Larva Stage I ([1]; doses as E63, water 0): 0 | Larva Stage II ([1]; doses as E63, water 0): 0 | Early Pupa ([1]; doses as E63, water 3): 11 | Late Pupa ([1]; doses as E63, water 3): 4 | Adult ([1]; doses as E63, water 10): 0 | Dead Larva ([2]; Table 42, Btk resistant strain, individuals of n = 32 after 7 days, U/mL diet: SEQ 127 2, Neutral 200, Keratinase 260, water 1): 19 | Larva Stage I [2, 5]: 11 | Larva Stage II [2, 5]: 2 | Early Pupa ([2]; Table 42, Btk resistant, n = 32, doses as E69, water 1): 0 | Adult ([2]; Table 42, Btk resistant, n = 32, doses as E69, water 8): 0 | Late Pupa ([2]; Table 42, Btk resistant, n = 32, doses as E69, water 22): 0 | mortality ([2]; text to Table 42, 10× higher protease activity rate): more than 50% | effect on Btk resistant Diamondback moth larvae, in words ([2]; text to Tables 42, 45, 47): strong stunting of survival larvae | Diet consumption [3]: 0.70 g | Dead Larva ([4]; Table 43, individuals of n = 32 after 7 days, Keratinase 260 U/mL diet, water 2): 32 | Larva Stage I [4, 6]: 0 | Larva Stage II [4, 6]: 0 | Larva Stage III [4, 6]: 0 | Larva Stage IV ([4]; Table 43, n = 32, Keratinase 260 U/mL diet, water 30): 0 | effect on Fall armyworm larvae, in words ([4]; text to Tables 43, 46, 48, 50): lethal

Reference: US20240324599A1, “PESTICIDAL ENZYMES FOR USE ON NEMATODES, INSECTS, AND MOLLUSKS” (priority 2023, published 2024)
